Consider five molecules from patent US20240239872A1 (SHANDONG AGRICULTURAL UNIVERSITY, published 2024).

The target in test [1] is T1, PVY in juice of infected plants (coat protein on virus) (Potato virus Y). Briefly: indirect ELISA (antigen not stated). Background: ELISA stands for enzyme-linked immunosorbent assay.
The target in test [2] is T1, PVY in juice of infected plants (coat …). The experiment in a line: dot-ELISA on diluted juice of PVY-infected plants.

B1: monoclonal antibody C1 (antibody, V domains shown)
VH: EVQLQQSGAELVRPGALVKLSCKASGFNIKDYYMHWVKQRPEEGLEWIGWIDPENGNTIYDPKFQGKASITADTSSNTVRLQLSSLTSEDTAVYYCARERGAYWGQGTLVTVSA
VL: QIVLTQSPAIMSASPGEKVTMTCSASSSVSYMYWFQQKPGSSPRLLIYDTSNLASGVPVRFSGSGSGTSYSLTISRMEAEDAATFYCQQWSSYPLTFGAGTKLELK
notes: also called MAb C1
In test [1], B1 had a Titer of 243000 reciprocal dilution. Besides, the “dilution of PVY-infected juice still detected” value (“dilution” below) in test [2] is 5120 times (fold dilution).

B2: monoclonal antibody M3 (antibody, V domains shown)
VH: EVILVESGGGLVKPGGSLRLSCAASGFTFSSHPLSWVRQSPDKRLEWVASISSGGRYTYYPDSVKGRLTISRDNAKNILYLHMNSLRSEDTAMYYCARRGSTATAWFAYWGQGTLVTVSA
VL: DIALTQSPASLAVSLGQRATISCKASQSVDYDGDSYMSWYQQKPGQPPKLLIYGASNLESGIPARFSGSGSGTDFTLNIHPVEEEDAATYYCQQSNEDLPTFGGGTKLEIK
notes: also called MAb M3
B2 displayed a Titer in test [1] of 243000 reciprocal dilution. Besides, in test [2], the “dilution” value is 5120 times (fold dilution).

B3: monoclonal antibody M1 (antibody, V domains shown)
VH: QVQLQQSGPELVRPGASVKMSCKTSGYPFSTYWMHWVKQRPGQGLEWIGMIKPSNSETSLNQKFKDKATLNVDKSSNTAYMQLNSLTSEDSGVYYCARAGDSWGQGTTLTVSS
VL: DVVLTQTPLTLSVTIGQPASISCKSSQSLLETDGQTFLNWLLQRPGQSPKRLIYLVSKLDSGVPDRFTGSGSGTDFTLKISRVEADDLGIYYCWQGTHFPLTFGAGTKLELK
notes: also called MAb M1
With B3, in test [1], the Titer stood at 243000 reciprocal dilution. The “dilution” value in test [2] was 5120 times (fold dilution).

B4: monoclonal antibody N1 (antibody, V domains shown)
VH: EVQLVESGGGLVQPGGSLKLSCAASGFTFSSYGMSWVRQSPDKRLEWVATINNNGGSTYYPDSVKGRFTISRDNAKNTLYLQMSSLKSEDTAVYYCARDAAFDCWGQGTTLTVSS
VL: DIVMSQSPSSLAVSAGEKVTMSCKSSQSLLNSRTRKNYLAWYQQKPGQSPKLLIYWASTRESGVPDRFTGSGSGTDFTLTISSVQAEDLAVYYCKQSYNLFTFGSGTKLEIK
notes: also called MAb N1
On to B4, for which the Titer in test [1] is 243000 reciprocal dilution. In addition, in test [2], the “dilution” value was 10200 times (fold dilution).

B5: monoclonal antibody M2 (antibody, V domains shown)
VH: EVQLVESGGGLVQPKGSLKLSCAASDFTFNTHSMNWVRQAPGKVLEWIARIRSQSNNYATYYADSVKDRFTISRDDSQNMFYLQMNNLKTEDTAMYYCAGDYYGPFAYWGQGTLVAVSA
VL: DVLMTQTPLSLPVSLGDQASISCRSGQSLVHSNGNTYLHWYLQKPGQSPKLLIYKVSNRFSGVPDRFSGSGSGTDFTLKISRVEAEDLGVYFCSQSTHVPWTFGGGTKLEIK
notes: also called MAb M2
B5: the Titer in test [1] was 243000 reciprocal dilution. In test [2], the “dilution” value is 640 times (fold dilution).
